Data on two molecules can be found in US20240131074A1 (TENEOBIO, published 2024).

Test [1] has as its target human PSMA protein (ELISA) (human, UniProt Q04609 44-750, limits assumed). In words: ELISA on human PSMA protein. On the procedure: The two indicated antibodies were tested for binding in a standard ELISA assay to human PSMA. The human PSMA protein was used at a concentration of 2 μg/mL to capture UniAbs at 50 ng/mL. Antibody binding was detected with a goat anti-human IgG HRP conjugated antibody (ThermoFisher 31413). All antibodies were diluted in 1× PBS with 0.05% Tween-20 and 1% dry milk powder.

In test [2] the target is T1, human PSMA expressed on cells (LNCaP, 22Rv1, PC3 cells stably transfected to express human PSMA) (human, UniProt Q04609 1-750).
T1 construct: whole, on cells; Type II transmembrane protein; The background section calls it a non-covalent homodimer; also called Prostate Specific Membrane Antigen; Glutamate Carboxypeptidase II
T1 sequence (Q04609 whole entry): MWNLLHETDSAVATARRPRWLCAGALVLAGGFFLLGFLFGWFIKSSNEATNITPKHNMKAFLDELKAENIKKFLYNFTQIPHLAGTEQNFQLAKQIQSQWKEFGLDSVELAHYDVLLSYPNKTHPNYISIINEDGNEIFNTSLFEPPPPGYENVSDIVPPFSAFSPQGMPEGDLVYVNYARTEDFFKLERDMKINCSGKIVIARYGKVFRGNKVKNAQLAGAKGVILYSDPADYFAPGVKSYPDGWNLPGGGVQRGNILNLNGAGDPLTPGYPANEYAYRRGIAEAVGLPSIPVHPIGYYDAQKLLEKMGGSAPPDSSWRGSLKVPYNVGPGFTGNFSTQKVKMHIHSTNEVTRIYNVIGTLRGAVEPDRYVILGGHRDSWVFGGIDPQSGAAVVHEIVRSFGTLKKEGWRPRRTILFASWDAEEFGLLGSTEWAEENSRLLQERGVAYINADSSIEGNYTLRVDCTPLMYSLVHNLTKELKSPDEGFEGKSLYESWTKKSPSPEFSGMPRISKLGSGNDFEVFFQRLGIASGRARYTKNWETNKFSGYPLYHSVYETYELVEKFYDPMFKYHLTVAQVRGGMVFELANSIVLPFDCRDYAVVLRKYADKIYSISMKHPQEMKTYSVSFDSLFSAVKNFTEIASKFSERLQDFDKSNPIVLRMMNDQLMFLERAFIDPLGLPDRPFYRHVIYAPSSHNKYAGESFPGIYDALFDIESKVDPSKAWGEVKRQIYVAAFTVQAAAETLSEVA
In words: cell-binding assay on PSMA+ cells.

human PSMA protein (ELISA), sequence (Q04609 44-750 limits assumed): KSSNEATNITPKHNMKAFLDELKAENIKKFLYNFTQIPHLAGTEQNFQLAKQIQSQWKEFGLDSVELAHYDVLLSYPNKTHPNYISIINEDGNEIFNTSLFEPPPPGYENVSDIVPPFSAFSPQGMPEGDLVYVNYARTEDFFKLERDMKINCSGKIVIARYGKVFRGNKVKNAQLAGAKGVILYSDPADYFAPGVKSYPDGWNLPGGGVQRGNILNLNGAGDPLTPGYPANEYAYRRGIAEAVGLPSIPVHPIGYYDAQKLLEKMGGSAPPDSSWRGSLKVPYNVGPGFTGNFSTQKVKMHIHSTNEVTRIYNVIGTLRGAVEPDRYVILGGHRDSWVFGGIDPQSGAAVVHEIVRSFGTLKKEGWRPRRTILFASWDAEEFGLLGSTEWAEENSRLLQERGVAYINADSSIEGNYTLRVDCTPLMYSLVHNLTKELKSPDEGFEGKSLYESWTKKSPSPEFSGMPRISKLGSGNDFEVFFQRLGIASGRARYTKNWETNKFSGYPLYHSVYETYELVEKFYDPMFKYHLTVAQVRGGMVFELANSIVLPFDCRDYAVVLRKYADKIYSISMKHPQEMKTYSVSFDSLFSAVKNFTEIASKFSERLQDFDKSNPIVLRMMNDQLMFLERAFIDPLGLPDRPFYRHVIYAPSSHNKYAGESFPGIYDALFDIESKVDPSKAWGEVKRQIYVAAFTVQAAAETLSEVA

B1: Anti-PSMA heavy chain-only antibody (UniAb) Clone ID 325972 (antibody, V domains shown)
VH: EVQLLESGGGVVQPGRSLRLSCAASGFSFSGYGMHWVRQAPGKEREWVAVISYDGSNKYYADSVKGRFTISRDNSKNTLYLQMNSLRAEDTAVYYCAKDANWGQHPDHTSFDYRGQGTLVTVSS
notes: Heavy chain-only antibody with no light chain
On to B1, for which the binding result in test [1] and in test [2] was “binds” each time.

B2: Anti-PSMA heavy chain-only antibody (UniAb) Clone ID 325795 (antibody, V domains shown)
VH: EVQLLESGGGLVQPGGSLRLSCAASGFTFKFYAMSWVRQAPGKGPEWVSVISGSGGSTYYADSVKGRFTISRDNSKNTLHLQMNSLRAEDTAVYFCAKEIAEASRGFDYRGQGTLVTVSS
notes: as for B1
As to B2, the binding result in test [1] and in test [2] was “binds” in each case.
